Test results reported in patent publication US20060150259A1, “Model of bone disease amenable to high-throughput screening” (priority 2003, published 2006).
“Also recorded” adds a separate entry of the source.

Assays:
[1] = tested on: zebrafish larvae (bone formation); assay: Anabolic bone screen in zebrafish larvae; type: in vivo; conditions: for anabolic effects (promoting bone), dose/response: 3 d.p.f. to 8 d.p.f., range of concentrations
Method: A 1 mg/ml stock of parathyroid hormone (PTH) (Sigma) was made in 20 mM NaH2PO4 and 2.13g/L mannitol. A […] stock of cholecalciferol (Vitamin D)(Sigma) was made in dH2O. […]
(§1) Embryos and larvae were fixed in 4% paraformaldehyde (PFA), then labelled with alizarin red as described herein. In vivo labelling was achieved by rearing fish in 0.05% alizarin red in embryo medium.
(§2) Stained larvae were mounted on depression slides and visualised by fluorescence microscopy on a BX51 microscope (Olympus) and images were captured using a ColorView camera and AnalySis software (Olympus). The intensity of and area of alizarin red fluorescence was quantified for each treatment group, with a minimum of 5 samples per group, using colour threshold and area measurements in AnalySis (Olympus). Mean values and standard deviations were calculated using Excel software (Microsoft Office).
In addition to screening for the rescue of osteoporosis, we observed that anabolic bone effects could also be detected.

zebrafish = assay: DMSO tolerance of zebrafish; type: in vivo; conditions: added to the fish water
Text: Moreover, the inventors have discovered that zebrafish are also DMSO (dimethyl sulphoxide) tolerant. This is important as DMSO is used as a solvent to dissolve many drugs. The inventors have established that zebrafish can tolerate 1% DMSO. Thus, a candidate drug or other test substance may be dissolved in DMSO and administered to zebrafish by adding to the fish water to give a final concentration of DMSO of at least up to 1%. This is employed in various preferred aspects and embodiments of the present invention.

zebrafish larvae = assay: Toxicity / viability of zebrafish larvae in embryo medium containing compound
Method: For compound screening, a dose of 10 ug/ml prednisolone may be used, although other doses and durations of exposure may also be used.

[2] = tested on: zebrafish larvae with prednisolone-induced osteoporosis; assay: Rescue of prednisolone-induced osteoporosis with etidronate in zebrafish larvae; type: in vivo
Method: 1) Osteoporosis was induced with prednisolone as described above.
2) Etidronic acid (Sigma H6773) was made up as […] stock in embryo medium.
3) Osteoporosis was rescued by co-administration of etidronic acid and prednisolone from 3 d.p.f. to 10 d.p.f.
A 10 mg/ml stock solution of etidronate (Sigma) in embryo medium was used in all prednisolone rescue experiments. The pH of the solution was adjusted to pH 7.5 using NaOH. The stock was stored at 4° C. for a maximum of 2 months. […]. OP was induced by exposure of larvae to 10 ug/ml prednisolone from 3 d.p.f. to 6 d.p.f. At 6 d.p.f., medium containing 10 ug/ml prednisolone was removed and replaced with 10 ug/ml prednisolone in combination with etidronate.
as §1, §2
A dose/response study was performed using larvae exposed to varying doses of etidronate in the presence of prednisolone (at 10 ug/ml) from 3 d.p.f. to 9 d.p.f. Samples were stained with alizarin red and the area of stained tissue was quantified using AnalySis software. The average stained area was calculated from five samples at each concentration and plotted as a mineralization index.

With C=C1CC[C@H](O)C/C1=C/C=C1\CCC[C@]2(C)[C@@H]([C@H](C)CCCC(C)C)CC[C@@H]12 [Cholecalciferol, cholecalciferol, reference compound] the “anabolic effects (promoting bone), dose/response” value [1] was “clear dose/response in relation to promoting bone”.

In the case of C[S+](C)[O-] [DMSO, dimethyl sulphoxide], the “DMSO concentration tolerated by zebrafish” value (zebrafish) is reported as 1%.

CC(O)(P(=O)(O)O)P(=O)(O)O [etidronate, Etidronic acid] was tested, and the viability of larvae (zebrafish larvae; 5 ug/mi etidronic acid co-administered with 10 ug/ml prednisolone) was “viable beyond 10 d.p.f”, the viability of larvae (zebrafish larvae; 10 ug/ml etidronate co-administered with 10 ug/ml prednisolone) was “viable beyond 10 d.p.f” and the “rescue of OP phenotype in wholemount skeletal preparations (amount of staining)” value ([2]; etidronate 10 ug/ml with prednisolone 10 ug/ml) was “rescue is readily observed; also recorded: clear increase in the amount of staining”. The “dose/response, fluorescence intensity in stained bones in vivo” value ([2]; increasing doses of etidronate in the presence of prednisolone) was “correlated with recovery from OP” and the “dose/response, area of stained tissue (mineralization index)” value ([2]; varying doses of etidronate with prednisolone 10 ug/ml, 3 d.p.f. to 9 d.p.f.) was “clear correlation between increasing doses of etidronate and rescue of the OP phenotype”.

B1: parathyroid hormone (peptide, UniProt P01270 32-115, looked up)
Parathyroid hormone: SVSEIQLMHNLGKHLNSMERVEWLRKKLQDVHNFVALGAPLAPRDAGSQRPRKKEDNVLVESHEKSLGEADKADVNVLTKAKSQ
modifications: Parathyroid hormone
notes: parathyroid hormone (PTH) (Sigma)
In the case of B1, the Summary of effects ([1]; 40 ng/ml, Continuous, 3 d.p.f. to 8 d.p.f) is reported as “Anabolic effect”, the Summary of effects ([1]; 100 ng/ml, Continuous, 3 d.p.f. to 8 d.p.f) is reported as “Mild catabolic” and the Summary of effects ([1]; 200 ng/ml, Brief, 6 hours on 5 d.p.f, effects noted on 8 d.p.f.) is reported as “Strong anabolic”. For the same molecule, the Summary of effects ([1]; 200 ng/ml, Continuous, 3 d.p.f. to 8 d.p.f) was “Strong catabolic”, the effect on bone ([1]; 200 ng/ml, administered for 6-8 hours and then removed from the medium) was “anabolic effect” and the effect on bone ([1]; 206 ng/ml, administered continuously from 3 d.p.f to 9 d.p.f.) was “catabolic effect”. The “anabolic effects (promoting bone), dose/response” value [1] was “clear dose/response in relation to promoting bone” and the effect on bone ([1]; doses up to 100 ng/ml, administered continuously from 3 d.p.f to 9 d.p.f.) was “anabolic effect”.
